According to patent publication US20120171195A1:

Assays:
Assay in all cases: Luminex beads; MAb 1/1600; PBS only
[1] = target: HLA-Cw*0202 (human)
[2] = target: HLA-B*0801 (human) (UniProt P01889)
[3] = target: HLA-B*2708 (human) (UniProt P01889)
[4] = target: HLA-B*5101 (human)
[5] = target: HLA-B*4101 (human) (UniProt P01889)
[6] = target: HLA-Cw*1502 (human)
[7] = target: HLA-B*4501 (human)
[8] = target: HLA-B*4701 (human)
[9] = target: HLA-B*5801 (human)

- MFI [1]: 785 MFI
- MFI [2]: 262 MFI
- MFI [3]: 396 MFI
- MFI [4]: 347 MFI
- MFI [5]: 645 MFI
- MFI [6]: 485 MFI
- MFI [7]: 808 MFI
- MFI [8]: 804 MFI
- MFI [9]: 524 MFI
Substance: murine monoclonal antibody (MAb) MEM-E/02
